B1: TPR t1 (parent)
chain: GACCAAUCUGCCCUCAGAGCUCGAGAACAUCUUCGGAUGCAGAGGAGGCAGGCUUCGGUGGCGCGAUAGCGCCAACGUCCUCAACCUCCAAUGCAUCCCACCACAUGAUGAUGCCUGAAGAGCCUUGGUUUUUUG

The variants in the data set derive from B1. In words: polymerase ribozyme fitness, log enrichment relative to wild type (log ratio); higher = more active; in vitro selection for triplet polymerase activity. In outline:
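A heterodimeric triplet polymerase ribozyme had each of its subunits mutagenized by PCR into a library, which was transcribed. One round of in vitro selection, done in triplicate, annealed each library with a biotinylated primer, its partner subunit and triplets, then incubated it frozen at −7 °C before gel excision of extended constructs, streptavidin-bead capture and RT-PCR. Fitness is the logarithm of genotype enrichment relative to wild-type enrichment, based on Illumina sequencing of inputs and outputs and inverse-variance-weighted replicate averages. A base-2 logarithm is used, and genotypes were kept only with ≥10 input reads and ≥1 read per output.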
Regarding GACCAAUCUGCCCUCAGAGCUCGAGAACAUCUUCGGAUGCAGAGGAGGCAGGCUUCGGUAGCGCGAUAGCGCCAACGUCCUCAACAUCCAAUGCAUCGCACCACAUGAAGAUGCCUUAAGAGCCUUGGUUUUUUG [G60A C86A C98G U109A G117U], the “polymerase ribozyme fitness (log ratio)” value is -6.71.
As for GACCAAUCUGCCCUCAGAGCUCGAGAACAUCUUCGGAUGCAGAGGAGGCAGGCUUCGGUAGCGCGAUAGCGCCAACGUCCUCAACAUCCAAUGCAUCCCACCACAUGAUGAUGCCUGAAGAGCCUUGGUUUUUUG [G60A C86A], the “polymerase ribozyme fitness (log ratio)” value is -0.942.
Turning to GACCAAUCUGCCCUCAGAGCUCGAGAACAUCUUCGGAUGCAGAGGAGGCAGGCUUCGGUAGCGCGAUAGCGCCAACGUCCUCAACCUCCAAUGCAUCCCACCACAUGAUGAUGGCUGAAGAGCCUUGGUUUGUUG [G60A C114G U132G], the “polymerase ribozyme fitness (log ratio)” value was -4.75.
With GACCAAUCUGCCCUCAGAGCUCGAGAACAUCUUCGGAUGCAGAGGAGGCAGGCUUCGGUAGCGCGAUAGCGCCAACGUCCUAAAACUCCAAUGCAUCCCACCACAUGAUGAUGCCUGAAAAGCCUUGGUUUUUUG [G60A C82A C85A G120A] the figure was -0.412.
Turning to GACCAAUCUGCCCUCAGAGCUCGAGAACAUCUUCGGAUGCAGAGGAGGCAGGCUUCGGUAGCGCGAUAGCGCCAACGUACUCAACCUCCAAUGCAUCCCACCACAUGAUAAUGCCUGAAGAGCCUUGGUUUUUUG [G60A C79A G110A], the “polymerase ribozyme fitness (log ratio)” value was -3.84.
GACCAAUCUGCCCUCAGAGCUCGAGAACAUCUUCGGAUGCAGAGGAGGCAGGCUUCGGUAGCGCGAUAGCGCCAACGUCCUCAACCUCCAAUGCAUUCCACCACAUGAUGAUGCCUGAACAGCCUUGGUUUUUUG [G60A C97U G120C]: the “polymerase ribozyme fitness (log ratio)” value was 0.712.
In the case of GACCAAUCUGCCCUCAGAGCUCGAGAACAUCUUCGGAUGCAGAGGAGGCAGGCUUCGGUAGCGCGAUAGCGCCAACGUUCUCAACCUCCAAUGCAUCGAACCACAUGAUGAUGCCUGAAGAGGCUUGGUUUUUUG [G60A C79U C98G C99A C123G] it was -2.67; in that of GACCAAUCUGCCCUCAGAGCUCGAGAACAUCUUCGGAUGCAGAGGAGGCAGGCUUCGGUAGCGCGAUAGCGCCAACGUCCUCAACCUCCAAUGCAUCCCAACACAUGAUGAUGCCUGAAGAGCCUUGGUUUUUUG [G60A C101A], -1.57; in that of GACCAAUCUGCCCUCAGAGCUCGAGAACAUCUUCGGAUGCAGAGGAGGCAGGCUUCGGUAGCGCGAUAGCGCCAACGUCAUCAACCUCCAAUGCAUCCCACCACAUGAUGAUCCCUGAAGAGCCUUGGUUUUUUG [G60A C80A G113C], -6.39.
For the variant GACCAAUCUGCCCUCAGAGCUCGAGAACAUCUUCGGAUGCAGAGGAGGCAGGCUUCGGUAGCGCGAUAGCGCCAACGUCCUGAACAGCCAAUGCAUCCCACCACAUGAUGAUGCCUGAAGAGCCUUGGUUUUUUG [G60A C82G C86A U87G], the “polymerase ribozyme fitness (log ratio)” value was -1.52.
Turning to GACCAAUCUGCCCUCAGAGCUCGAGAACAUCUUCGGAUGCAGAGGAGGCAGGCUUCGGUAGCGCGAUAGCGCCAACGUCCUCAACCUCUAAUGCUUCCCACCACAUGAUGAUGCCUGAAGAGCCUUGGUUUUUUG [G60A C89U A95U], the “polymerase ribozyme fitness (log ratio)” value was -1.24.
In the case of GACCAAUCUGCCCUCAGAGCUCGAGAACAUCUUCGGAUGCAGAGGAGGCAGGCUUCGGUAGCGCGAUAGCGCCAACGUCCUGAACCUCCAAUGCAUCCCAUCACAUGAUGAUGCCUGAAAAGCCUUGUUUUUUUG [G60A C82G C101U G120A G128U] it was -2.12; in that of GACCAAUCUGCCCUCAGAGCUCGAGAACAUCUUCGGAUGCAGAGGAGGCAGGCUUCGGUAGCGCGAUAGCGCCAACGUCCUCAACCUCCAAUGCAUGCCACCACAUGAUGAUGCCUGAACAGCCUUGGUUUUUUG [G60A C97G G120C], -4.18; in that of GACCAAUCUGCCCUCAGAGCUCGAGAACAUCUUCGGAUGCAGAGGAGGCAGGCUUCGGUAGCGCGAUAGCGCCAACGUCCUCAACCUCCAAUGCAUCCCACCACAUGAUGAUGCCUGAAGAGUCUUGGUUUUUUG [G60A C123U], 1.14.
As for GACCAAUCUGCCCUCAGAGCUCGAGAACAUCUUCGGAUGCAGAGGAGGCAGGCUUCGGUAGCGCGAUAGCGCCAACGUCCUCAACCUCCAAUGCAUCACACCACAUGAUGAUGCCUGAAGAGUCUUGGUUUUUUG [G60A C98A C123U], the “polymerase ribozyme fitness (log ratio)” value was -5.08.
With GACCAAUCUGCCCUCAGAGCUCGAGAACAUCUUCGGAUGCAGAGGAGGCAGGCUUCGGUAGCGCGAUAGCGCCAACGUCCUAAACCUCCAAUGCAUCCCACCACAUGAUGAUACCUGAAGAGCCUUGGUUUUUUG [G60A C82A G113A] the figure was -0.999.
Turning to GACCAAUCUGCCCUCAGAGCUCGAGAACAUCUUCGGAUGCAGAGGAGGCAGGCUUCGGUAGCCCGAUAGCGCCAACGUCCUCAACCUCCAAUGCAUCCCACCACAUGAUAAUGCCUGAAGAGCCUUGGUUUUUUC [G60A G63C G110A G135C], the “polymerase ribozyme fitness (log ratio)” value was -6.16.
In the case of GACCAAUCUGCCCUCAGAGCUCGAGAACAUCUUCGGAUGCAGAGGAGGCAGGCUUCGGUACCGCGAUAGCGCCAACGUCCUCAACCUCCAAUGCAUCCCACCACAUGAUCAUGCCUGAAGAGCCUUGGUUUUUUG [G60A G61C G110C] it was -5.74; in that of GACCAAUCUGCCCUCAGAGCUCGAGAACAUCUUCGGAUGCAGAGGAGGCAGGCUUCGGUAGCGCGAUAGCGCCAACGUCCUCAACAUCCAAUGCAUCCCACCACAUGAUGAUGCCUGAAGAGCCUUGGUUCUUUG [G60A C86A U131C], -1.16.
In the case of GACCAAUCUGCCCUCAGAGCUCGAGAACAUCUUCGGAUGCAGAGGAGGCAGGCUUCGGUAGCGCGAUAGCGCCAACGUCCUCAACCUCCAAUGAAUCCCACCACAUGAUUAUGCCUGAAGAGCCUUGGUUUUUUG [G60A C94A G110U] it was -3.31; in that of GACCAAUCUGCCCUCAGAGCUCGAGAACAUCUUCGGAUGCAGAGGAGGCAGGCUUCGGUAGCGCGAUAGCGCCAACGUCUUCAACCUCUAAUGCAUCCCACCACAUGAUGAUGCCUGAAGAGCCUUGGUUUUUUG [G60A C80U C89U], -2.13.

The values are drawn from the RNAGym collection of RNA variant scans (doi:10.1073/pnas.2313332121).
